Data set [1] is described as follows: In vitro transcribed and translated UGTs incubated with steviol, LC-MS. The class given is biochemical. As to the method: (§1) EUGT11 was produced by in vitro transcription and translation, and incubated with various substrates in the RebD pathway. Similar experiments were carried out using in vitro transcribed and translated UGT91D2e. […] Compounds 1-3 were identified solely by mass and expected retention time. The numbers shown in FIG. 3 are the average peak height of the indicated steviol glycoside obtained from a LC-MS chromatogram, and, although not quantitative, can be used to compare the activity of the two enzymes. […] Both enzymes were able to convert steviol 19-O-monoglucoside (SMG) to compound 1, with EUGT11 being about ten times more efficient than UGT91D2e at converting 19-SMG to compound 1.

A short description of data set [2]: Denaturation temperature by differential scanning calorimetry (DSC). It is filed as physicochemical. Conditions: 6HIS-purified enzymes, 91D2e-b GST-purified. As to the method:
To assess the thermal stability of EUGT11 and to compare it with the other UGTs in the steviol glycosylation pathway, denaturation temperatures of the proteins were determined using differential scanning calorimetry (DSC). Use of DSC thermograms to estimate denaturation temperatures, TD, is described, for example, by E. Freire in Methods in Molecular Biology 1995, Vol. 40 191-218. DSC was performed (using 6HIS-purified EUGT11, yielding an apparent TD of 39° C.; while when GST-purified 91D2e-b was used, the measured TD was 79° C. For reference, the measured TD when using 6HIS-purified UGT74G1, UGT76G1 and UGT85C2 was 86° C. in all cases. One of skill in the art will recognize that enzyme immobilization or addition of thermal protectants can be added to the reactions to improve stability of the protein. Non-limiting examples of thermal protectants include trehalose, glycerol, ammonium sulphate, betaine, trimethylamine oxide, and proteins.
A general note: DSC measures the heat that a sample takes up or gives off during a temperature scan.

Data set [3] can be described thus: In vitro transcribed and translated UGTs incubated with 19-SMG, LC-MS. The class given is biochemical. Conditions: average LC-MS peak height, not quantitative. As to the method:
as §1

The nature of data set [4]: Enzyme kinetics with UDP-glucose as substrate. It is filed as biochemical. How it is done: A series of experiments were performed to determine kinetic parameters of EUGT11 and 91D2e-b. For both enzymes, 100 μM RebA, 300 μM UDP-glucose, and 10 U/mL Alkaline Phosphatase (Fermentas/Thermo Fisher, Waltham, MA) were used in the reactions. For EUGT11, the reactions were performed at 37° C. using 100 mM Tris-HCl, pH 7, and 2% enzyme. For 91D2e-b, the reactions were performed at 30° C. using 20 mM Hepes-NaOH, pH 7.6, 20% (by volume) enzyme. The initial velocities (V0) were calculated in the linear range of a product versus time plot.
Vmax and KM parameters were determined from the curve-fit Lineweaver-Burk data, calculated from the x- and y intercepts (x=0, y=1/Vmax) and (y=0, x=−1/KM). Additionally, the same parameters also were calculated by a non-linear least squares regression, using the SOLVER function in Excel. The results obtained with both methods for EUGT11 and RebA are presented in Table 12, along with all the kinetic parameters of this example. Kcat is calculated based on Vmax divided by the approximate amount of protein in the assay.
In order to investigate the influence of UDP-glucose concentration in the glycosylation reaction, as well as the affinity of EUGT11 for UDP-glucose, similar kinetics analysis were performed. EUGT11 was incubated with increasing amounts of UDP-glucose (20 μM, 50 μM, 100 μM, and 200 μM), maintaining an excess of RebA (500 μM).
In the case of UGT91D2e-b, RebA concentrations assayed were 50 μM, 100 μM, 200 μM, 300 μM, 400 μM and 500 μM. Concentration of UDP-glucose was always three times the concentration of RebA and incubation was performed at 30° C., in the reaction conditions described above for UGT91D2e-b. Additionally, kinetic parameters of UGT91D2e-b towards UDP-glucose were determined. UGT91D2e-b was incubated with increasing amounts of UDP-glucose (30 μM, 50 μM, 100 μM, and 200 μM), maintaining an excess of RebA (1500 μM). incubation was performed at 30° C., in optimal conditions for UGT91D2e-b.

B1: EUGT11: UDP glycosyl transferase from Oryza sativa (GenBank AC133334), SEQ ID NO:152 (protein, listed as Oryza sativa)
chain: MDSGYSSSYAAAAGMHVVICPWLAFGHLLPCLDLAQRLASRGHRVSFVSTPRNISRLPPVRPALAPLVAFVALPLPRVEGLPDGAESTNDVPHDRPDMVELHRRAFDGLAAPFSEFLGTACADWVIVDVFHHWAAAAALEHKVPCAMMLLGSAHMIASIADRRLERAETESPAAAGQGRPAAAPTFEVARMKLIRTKGSSGMSLAERFSLTLSRSSLVVGRSCVEFEPETVPLLSTLRGKPITFLGLMPPLHEGRREDGEDATVRWLDAQPAKSVVYVALGSEVPLGVEKVHELALGLELAGTRFLWALRKPTGVSDADLLPAGFEERTRGRGVVATRWVPQMSILAHAAVGAFLTHCGWNSTIEGLMFGHPLIMLPIFGDQGPNARLIEAKNAGLQVARNDGDGSFDREGVAAAIRAVAVEEESSKVFQAKAKKLQEIVADMACHERYIDGFIQQLRSYKD
B1: the “use of steviol as a substrate” value in data set [1] was “not able to use steviol as a substrate”. Also, in data set [2], the “denaturation temperature TD” value came to 39 °C. Further, in data set [3], the “efficiency at converting 19-SMG to compound 1 compared with UGT91D2e” value is reported as “about ten”. Also, in data set [4] (Lineweaver-Burk plot), the Kcat came to 0.202 s⁻¹, the Km was 118 µM and the maximum rate (Vmax) was found to be 0.78 µM/min. Besides, in data set [4] (Nonlinear Least Square Fit), the Kcat was 0.2053 s⁻¹, the Km is 130 µM and the Vmax worked out at 0.79 µM/min.

One may read the Km as the concentration of substrate that gives half-maximal velocity. Broadly, the Vmax is the rate approached at saturating substrate.

The record behind these values is patent publication US12416034B2, “Recombinant production of steviol glycosides” (EVOLVA SA, priority 2011, dated 2025).
